Patent publication US20200040064A1 (OHIO STATE INNOVATION FOUNDATION, published 2020)

Target: T1, protein A on wild type Staphylococcus aureus newman strain bacteria (Staphylococcus aureus (newman strain), UniProt P0A015 37-419)
T1 construct: also called wt S.A; Staphylococcus aureus (wt)
Assay: flow cytometry, labeled CD64 on wt S. aureus in the absence of rituximab

B1: fluorescently labeled human Fcγ receptor CD64 (receptor)
chain: QVDTTKAVITLQPPWVSVFQEETVTLHCEVLHLPGSSSTQWFLNGTATQTSTPSYRITSASVNDSGEYRCQRGLSGRSDPIQLEIHRGWLLLQVSSRVFTEGEPLALRCHAWKDKLVYNVLYYRNGKAFKFFHWNSNLTILKTNISHNGTYHCSGMGKHRYTSAGISVTVKELFPAPVLNASVTSPLLEGNLVTLSCETKLLLQRPGLQLYFSFYMGSKTLRGRNTSSEYQILTARREDSGLYWCEAATEDGNVLKRSPELELQVLGLQLPTP
modifications: fluorescently labeled
B1: no binding.
